Test results reported in PMC1810427, “MLN51 Stimulates the RNA-Helicase Activity of eIF4AIII”.

Tests used:
[1] = target: eIF4AIII;MLN51 SELOR;Y14;Magoh (human;human;human, UniProt P38919;O15234;Q9Y5S9;P61326 1-411;137-283;50-174;1-146, |||); assay: SPR; ATP; 5 mM Mg2+; SPR (Biacore 2000): 40 mM Tris-HCl pH 7.8, 50 mM NaCl, 4 mM DTT, 5 mM MgCl2, 0.002% Tween 20, 30 ul/min, 10-160 nM protein; temperature not stated; conditions: protein: recombinant;recombinant;recombinant;recombinant; tags: N-terminal His6;GST cleaved off (PreScission);none;N-terminal His6; copies: 1;1;1;1; label: 5' biotin; single strand
MLN51 SELOR = MLN51 SELOR (UniProt O15234 137-283); assay: SPR; no nucleotide; 5 mM Mg2+; SPR (Biacore 2000): 40 mM Tris-HCl pH 7.8, 50 mM NaCl, 4 mM DTT, 5 mM MgCl2, 0.002% Tween 20, 30 ul/min, 10-160 nM protein; temperature not stated; conditions: protein: recombinant; tags: GST cleaved off (PreScission); label: 5' biotin; single strand
eIF4AIII;MLN51 SELOR = eIF4AIII;MLN51 SELOR (human;human?, UniProt P38919;O15234 1-411;137-283, |); assay: SPR; AMPPNP; 5 mM Mg2+; SPR (Biacore 2000): 40 mM Tris-HCl pH 7.8, 50 mM NaCl, 4 mM DTT, 5 mM MgCl2, 0.002% Tween 20, 30 ul/min, 10-160 nM protein; temperature not stated; conditions: protein: recombinant;recombinant; tags: N-terminal His6;GST cleaved off (PreScission); copies: 1;1; label: 5' biotin; single strand
Y14;Magoh = Y14;Magoh (human;human, UniProt Q9Y5S9;P61326 50-174;1-146, |); assay: SPR; no nucleotide stated; 5 mM Mg2+; SPR (Biacore 2000): 40 mM Tris-HCl pH 7.8, 50 mM NaCl, 4 mM DTT, 5 mM MgCl2, 0.002% Tween 20, 30 ul/min, 10-160 nM protein; temperature not stated; conditions: protein: recombinant;recombinant; tags: none;N-terminal His6; copies: 1;1; label: 5' biotin; single strand
Chain of Y14;Magoh (P61326 whole entry, chain 2 of 2, other chains not shown): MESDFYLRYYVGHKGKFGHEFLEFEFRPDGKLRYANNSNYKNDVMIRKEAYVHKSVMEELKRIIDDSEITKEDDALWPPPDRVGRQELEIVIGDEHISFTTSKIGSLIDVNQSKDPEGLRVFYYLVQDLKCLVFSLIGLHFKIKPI

Chain of MLN51 SELOR (O15234 137-283): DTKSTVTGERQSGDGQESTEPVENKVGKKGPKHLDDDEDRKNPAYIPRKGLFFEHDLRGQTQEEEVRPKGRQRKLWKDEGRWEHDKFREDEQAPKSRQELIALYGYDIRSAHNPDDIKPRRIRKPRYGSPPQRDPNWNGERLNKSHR
Chain of eIF4AIII;MLN51 SELOR;Y14;Magoh (P38919 whole entry, chain 1 of 4, other chains not shown): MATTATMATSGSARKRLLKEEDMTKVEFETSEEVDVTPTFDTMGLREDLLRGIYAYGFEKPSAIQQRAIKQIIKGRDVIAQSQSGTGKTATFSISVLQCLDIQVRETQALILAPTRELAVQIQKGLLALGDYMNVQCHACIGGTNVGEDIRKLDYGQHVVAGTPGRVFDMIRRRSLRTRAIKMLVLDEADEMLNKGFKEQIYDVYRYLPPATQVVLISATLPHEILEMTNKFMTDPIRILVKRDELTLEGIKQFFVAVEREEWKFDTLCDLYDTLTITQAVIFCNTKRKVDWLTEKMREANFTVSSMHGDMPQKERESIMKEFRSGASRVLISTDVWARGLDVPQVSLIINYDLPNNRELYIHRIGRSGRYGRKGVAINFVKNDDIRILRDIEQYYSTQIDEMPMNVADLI
Chain of eIF4AIII;MLN51 SELOR;Y14;Magoh (O15234 137-283, chain 2 of 4, other chains not shown): as the sequence (O15234 137-283) above
Chain of eIF4AIII;MLN51 SELOR;Y14;Magoh (P61326 whole entry, chain 4 of 4, other chains not shown): as the sequence (P61326 whole entry, chain 2 of 2, other chains not shown) above
Chain of eIF4AIII;MLN51 SELOR (P38919 whole entry, chain 1 of 2): as the sequence (P38919 whole entry, chain 1 of 4, other chains not shown) above
Chain of eIF4AIII;MLN51 SELOR (O15234 137-283, chain 2 of 2): as the sequence (O15234 137-283) above

AUGUCAUUCGAGUACAGUCUGUUCAGCUAGUCUCC (ssRNA) [35-mer ssRNA]
Kd [1]: ~10 nM
Kd (MLN51 SELOR): ~1000 nM
Kd (eIF4AIII;MLN51 SELOR): ~10 nM
Kd (Y14;Magoh): ~2000 nM
